Experimental data: patent publication US20260226503A1

Columns and labels:
[1] = target: AAV2 capsid (adeno-associated virus serotype 2) (UniProt P03135); assay: bind-and-elute chromatography, pure AAV2; bound at pH 7.0, eluted with PBS pH 2.0; ELISA
[2] = target: AAV9 capsid (adeno-associated virus serotype 9); assay: bind-and-elute chromatography, pure AAV9; bound at pH 7.0, eluted with PBS pH 2.0; ELISA
[3] = target: AAV9 capsid (adeno-associated virus serotype 9); assay: bind-and-elute chromatography, pure AAV9; bound at pH 7.0, eluted with 0.2 M MgCl2 in citrate pH 2.2; ELISA
[4] = target: AAV2 capsid (adeno-associated virus serotype 2) (UniProt P03135); assay: bind-and-elute chromatography, pure AAV2; bound at pH 7.0, eluted with 0.2 M MgCl2 in citrate pH 2.2; ELISA

Chain of AAV2 capsid (adeno-associated virus serotype 2) (P03135 whole entry, chain 1 of 3): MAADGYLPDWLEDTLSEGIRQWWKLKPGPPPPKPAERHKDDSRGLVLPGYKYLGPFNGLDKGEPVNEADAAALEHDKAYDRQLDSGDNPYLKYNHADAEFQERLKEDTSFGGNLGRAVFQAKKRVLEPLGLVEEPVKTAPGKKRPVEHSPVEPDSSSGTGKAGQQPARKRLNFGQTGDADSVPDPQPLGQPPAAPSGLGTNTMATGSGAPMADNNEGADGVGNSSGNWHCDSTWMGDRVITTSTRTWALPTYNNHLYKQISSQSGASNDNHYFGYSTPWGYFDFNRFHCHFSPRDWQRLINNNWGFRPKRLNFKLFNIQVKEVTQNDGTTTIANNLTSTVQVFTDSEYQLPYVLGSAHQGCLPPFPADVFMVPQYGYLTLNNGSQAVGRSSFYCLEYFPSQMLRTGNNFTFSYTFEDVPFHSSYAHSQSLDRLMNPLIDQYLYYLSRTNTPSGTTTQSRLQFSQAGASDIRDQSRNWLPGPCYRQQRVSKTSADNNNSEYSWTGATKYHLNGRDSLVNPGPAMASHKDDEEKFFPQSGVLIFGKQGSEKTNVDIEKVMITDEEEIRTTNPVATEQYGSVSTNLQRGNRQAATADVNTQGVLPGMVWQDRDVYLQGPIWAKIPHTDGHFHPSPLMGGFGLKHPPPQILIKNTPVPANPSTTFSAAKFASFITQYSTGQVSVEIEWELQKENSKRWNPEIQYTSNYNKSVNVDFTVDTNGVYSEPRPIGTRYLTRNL
Chain of AAV2 capsid (adeno-associated virus serotype 2) (P03135 139-735, tags left off, chain 2 of 3): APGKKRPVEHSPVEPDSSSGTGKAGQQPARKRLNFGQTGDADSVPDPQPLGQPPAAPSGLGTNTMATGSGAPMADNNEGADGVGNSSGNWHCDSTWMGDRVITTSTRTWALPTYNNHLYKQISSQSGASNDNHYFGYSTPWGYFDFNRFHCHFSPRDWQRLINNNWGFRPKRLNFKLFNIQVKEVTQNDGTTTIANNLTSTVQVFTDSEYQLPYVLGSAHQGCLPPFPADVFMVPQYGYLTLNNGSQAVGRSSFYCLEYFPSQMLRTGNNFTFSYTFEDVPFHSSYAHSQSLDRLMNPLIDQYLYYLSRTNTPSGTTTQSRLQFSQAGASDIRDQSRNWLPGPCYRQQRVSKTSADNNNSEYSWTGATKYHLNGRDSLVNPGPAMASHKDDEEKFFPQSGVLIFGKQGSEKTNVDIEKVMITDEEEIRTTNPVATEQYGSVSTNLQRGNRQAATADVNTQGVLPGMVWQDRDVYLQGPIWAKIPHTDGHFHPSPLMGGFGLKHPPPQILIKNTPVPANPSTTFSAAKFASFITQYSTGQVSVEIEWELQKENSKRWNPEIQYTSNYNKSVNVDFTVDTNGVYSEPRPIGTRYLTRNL
Chain of AAV2 capsid (adeno-associated virus serotype 2) (P03135 203-735, chain 3 of 3): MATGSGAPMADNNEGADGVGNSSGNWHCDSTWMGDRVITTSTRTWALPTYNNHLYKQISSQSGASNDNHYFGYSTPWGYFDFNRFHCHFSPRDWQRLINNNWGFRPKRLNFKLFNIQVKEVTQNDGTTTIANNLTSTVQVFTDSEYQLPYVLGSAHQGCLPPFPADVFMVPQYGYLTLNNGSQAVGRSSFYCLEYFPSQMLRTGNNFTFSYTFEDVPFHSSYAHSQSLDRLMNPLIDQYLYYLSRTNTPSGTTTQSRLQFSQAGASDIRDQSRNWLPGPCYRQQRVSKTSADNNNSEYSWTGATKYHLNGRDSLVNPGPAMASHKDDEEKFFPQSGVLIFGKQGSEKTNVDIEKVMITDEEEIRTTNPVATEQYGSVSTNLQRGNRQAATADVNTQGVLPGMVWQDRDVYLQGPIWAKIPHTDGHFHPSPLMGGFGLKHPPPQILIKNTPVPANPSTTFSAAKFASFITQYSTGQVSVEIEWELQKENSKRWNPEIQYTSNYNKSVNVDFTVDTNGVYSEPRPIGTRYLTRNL

Substance	yield (AAV titer in elution fraction vs. load) [1]	yield (AAV titer in elution fraction vs. load) [2]	yield (AAV titer in elution fraction vs. load) [3]	yield (AAV titer in elution fraction vs. load) [4]
AVB Sepharose HP resin (VHH)	45.8%	10.6%	–	–
POROS CaptureSelect AAVX Affinity resin (VHH)	–	–	25.6%	63.4%
